Results: PMC4390438

Biological target: T1, dopamine D2 receptor (mouse (endogenous in C57BL/6 brain slices)), P61168
T1 chain: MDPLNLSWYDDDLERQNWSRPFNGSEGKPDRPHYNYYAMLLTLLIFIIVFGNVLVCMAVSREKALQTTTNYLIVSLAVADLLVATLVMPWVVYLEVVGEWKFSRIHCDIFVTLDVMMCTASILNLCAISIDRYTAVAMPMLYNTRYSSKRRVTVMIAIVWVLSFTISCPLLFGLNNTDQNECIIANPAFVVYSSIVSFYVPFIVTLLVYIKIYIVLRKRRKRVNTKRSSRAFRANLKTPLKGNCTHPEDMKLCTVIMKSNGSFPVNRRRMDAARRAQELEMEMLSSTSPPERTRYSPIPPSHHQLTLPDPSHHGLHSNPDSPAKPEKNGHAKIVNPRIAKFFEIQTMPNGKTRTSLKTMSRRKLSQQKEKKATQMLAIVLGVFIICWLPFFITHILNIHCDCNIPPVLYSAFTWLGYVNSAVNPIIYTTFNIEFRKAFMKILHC
Assay: proximity ligation
Settings: remark: other sources report otherwise

B1: dopamine D1 receptor, Q61616 1-446 (receptor)
chain: MAPNTSTMDETGLPVERDFSFRILTACFLSLLILSTLLGNTLVCAAVIRFRHLRSKVTNFFVISLAVSDLLVAVLVMPWKAVAEIAGFWPFGSFCNIWVAFDIMCSTASILNLCVISVDRYWAISSPFQYERKMTPKAAFILISVAWTLSVLISFIPVQLSWHKAKPTWPLDGNFTSLEDAEDDNCDTRLSRTYAISSSLISFYIPVAIMIVTYTSIYRIAQKQIRRISALERAAVHAKNCQTTTGNGNPVECSQSESSFKMSFKRETKVLKTLSVIMGVFVCCWLPFFISNCMVPFCGSEETQPFCIDSITFDVFVWFGWANSSLNPIIYAFNADFQKAFSTLLGCYRLCPTTNNAIETVSINNNGAVMFSSHHEPRGSISKDCNLVYLIPHAVGSSEDLKREEAGGIPKPLEKLSPALSVILDYDTDVSLEKIQPVTHSGQHST
PLA dots per µm^2: 0.283 dots/µm^2
